Measured values as given in patent publication US20130143812A1, “ANTI-INFLAMMATORY DRUG” (SEKISUI MEDICAL CO., LTD., priority 2010, published 2013).

Key:
RAW264.7 cells [1] = experiment: Arginase-1 expression in RAW264.7 cells with activin A, Fstl3, anti-Fstl3 antibody or mouse IgG and palmitic acid; assay type: cell-based; conditions: activin A 10 ng/mL, under induction of inflammation by palmitic acid 200 μM
Description: Fstl3 (30 ng/mL), an anti-Fstl3 antibody or mouse IgG (0.3 to 10 μg/mL), and activin A (10 ng/mL) were added to RAW264.7 cells in combination as depicted in FIG. 6. Human Recombinant (R&D Systems, 338AC005), Recombinant (R&D Systems, 659AB005), and Follistatin-like 3 Recombinant (R&D Systems, 1255F3025) were used for activin A, activin B, and Fstl3, respectively. After 30 minutes, palmitic acid (a proinflammatory substance) was added to the final concentration of 200 μM and, after eight hours, RNeasy Mini Kit (250) (Qiagen, Cat. Number 74106) was used for recovering the cells to extract RNA.
The RNA extracted at step (1) was used for performing a reverse transcription reaction in accordance with the protocol of High Capacity cDNA Reverse Transcription Kit with RNase Inhibitor (ABI) to perform TaqMan PCR. Arginase-1 was selected as an M2 macrophage marker to create TaqMan probes.

[2] = system: high-fat diet-fed B6 mice; experiment: Arginase-1 mRNA expression in visceral fat of high-fat diet-fed B6 mice given recombinant adenovirus; assay type: in vivo; conditions: twelve-week high-fat diet B6 mice, activin expressed by recombinant adenovirus via tail vein once a week for two weeks
Excerpt: (§1) Full-length mouse inhibin βA cDNA or full-length mouse inhibin βB cDNA was amplified by using pcDNA3.1/V5-HisA (Invitrogen) in accordance with the recommended method. The amplified product was subjected to HindIII and EcoRV treatments and used for production of recombinant adenovirus. The recombinant adenovirus of inhibin βA or inhibin βB was produced by using Takara Adenovirus Expression Vector Kit (Takara) in accordance with the recommended method. For negative control, β-galactosidase-gene-containing virus attached to the kit was used. The adenovirus was transfected to HEK293 cells by using CellPhect (registered trademark) Transfection Kit (GE Healthcare) with the calcium phosphate method.
After five-week-old male B6 mice were adapted with normal diet for one week, high-fat diet was fed for twelve weeks. The recombinant adenovirus (5.0×10^11 pfu/mL) was lysed in 150 μL of PBS and administered to mice in the 18th week from the tail vein once a week for two weeks. Visceral fat was collected on seventh day after the second administration for performing reverse transcription in accordance with the protocol of High Capacity cDNA Reverse Transcription Kit with RNase Inhibitor (ABI) and the expression analysis of arginase-1 was performed with TaqMan PCR.

RAW264.7 cells [3] = experiment: Expression of M2 and M1 macrophage markers in RAW264.7 cells cultured with activin A or activin B (TaqMan PCR); assay type: cell-based; conditions: 10 or 30 ng/mL added individually, 8 hours; for expression of arginase-1 (M2 macrophage marker): mRNA relative to cyclophilin A
Description: Each of activin A (10 ng/mL or 30 ng/mL) and activin B (10 ng/mL or 30 ng/mL) was individually added to RAW264.7 cells. Human Recombinant (R&D Systems, 338AC005) and Recombinant (R&D Systems, 659AB005) were used for activin A and activin B, respectively. After eight hours, RNeasy Mini Kit (250) (Qiagen, Cat. Number 74106) was used for recovering the cells to extract RNA.
The RNA extracted at step (1) was used for performing a reverse transcription reaction in accordance with the protocol of High Capacity cDNA Reverse Transcription Kit with RNase Inhibitor (ABI) to perform TagMan PCR. Arginase-1 was selected as an M2 macrophage marker and IL-6 and MCP-1 were selected as M1 macrophage markers to create respective TaqMan probes. Each of mRNA expression levels is represented by a multiple when an expression level of cyclophilin A mRNA in the same sample is defined as one (hereinafter, the same applies to the examples using TaqMan PCR unless otherwise stated).

db/db mice = experiment: Arginase-1 mRNA expression in visceral fat of db/db mice given recombinant adenovirus; assay type: in vivo; conditions: activin expressed by recombinant adenovirus via tail vein once a week for two weeks, compared to control
Excerpt: as §1
After seven-week-old male db/db mice were adapted for one week, 5.0×10^11 pfu/mL of the recombinant adenovirus was lysed in 150 μL of PBS and administered from the tail vein once a week for two weeks. Visceral fat was collected on seventh day after the second administration for performing a reverse transcription reaction in accordance with the protocol of High Capacity cDNA Reverse Transcription Kit with RNase Inhibitor (ABI) and the expression analysis of arginase-1 was performed with TaqMan PCR.

RAW264.7 cells [4] = experiment: Macrophage marker expression in RAW264.7 cells with activin A, activin B or SB431542 and palmitic acid; assay type: cell-based; conditions: 8 hours; for expression level of arginase-1: activin 10 ng/mL present, palmitic acid 200 μM added, compared to control; for expression level of MCP-1, effect of activin addition / expression of IL-6, effect of activin addition: activin 10 ng/mL, palmitic acid 200 μM
Description: (1) Induction of Macrophages by Activin Species Activin A (10 ng/mL), activin B (10 ng/mL), and SB431542 (0.1 to 1 μM) were added to RAW264.7 cells in combination as depicted in FIG. 4. Human Recombinant (R&D Systems, 338AC005) and Recombinant (R&D Systems, 659AB005) were used for activin A and activin B, respectively. After 30 minutes, palmitic acid (a proinflammatory substance) was added to the final concentration of 200 μM and, after eight hours, RNeasy Mini Kit (250) (Qiagen, Cat. Number 74106) was used for recovering the cells to extract RNA. The RNA extracted at step (1) was used for performing a reverse transcription reaction in accordance with the protocol of High Capacity cDNA Reverse Transcription Kit with RNase Inhibitor (ABI) to perform TaqMan PCR. Arginase-1 was selected as an M2 macrophage marker and IL-6 and MCP-1 were selected as M1 macrophage markers to create respective TaqMan probes. Analysis was performed in the same way as the expression analysis of macrophage markers of Example 1.

RAW264.7 cells [5] = experiment: Expression of M2 macrophage markers in RAW264.7 cells cultured with activin A and SB431542; assay type: cell-based; conditions: activin A 10 or 30 ng/mL, 24 hours
Description: Activin A (10 ng/mL or 30 ng/mL) and SB431542 (0.1 to 1 μM, Santa Cruz Biotechnology, Inc., sc-204265) were added to RAW264.7 cells in combination as depicted in FIG. 2. Human Recombinant (R&D Systems, 338AC005) was used for activin A. After 24 hours, RNeasy Mini Kit (250) (Qiagen, Cat. Number 74106) was used for recovering the cells to extract RNA. The RNA extracted at step (1) was used for performing a reverse transcription reaction in accordance with the protocol of High Capacity cDNA Reverse Transcription Kit with RNase Inhibitor (ABI) to perform TaqMan PCR. Arginase-1, Mrc2 (mannose receptor 2), and IL-10 were selected as M2 macrophage markers to create respective TaqMan probes.

[6] = system: high-fat diet-fed B6 mice; experiment: Glucose tolerance test (GTT) in high-fat diet-fed B6 mice given recombinant adenovirus; assay type: in vivo; conditions: activin expressed by recombinant adenovirus, glucose 1.0 mg/g-BW into abdominal cavity
Description: Adenovirus was produced in the same way as the production of recombinant adenovirus in Example 3.
After five-week-old male B6 mice were adapted with normal diet for one week, high-fat diet was fed for twelve weeks. The recombinant adenovirus (5.0×10^11 pfu/mL) was lysed in 150 μL of PBS and administered to mice in the 18th week from the tail vein once a week for two weeks. A glucose tolerance test (GTT) was performed on seventh day after the second administration.
The GTT was performed as follows. Into the abdominal cavities of mice fasted for 16 hours from the previous day of the test, 1.0 mg/g-BW of glucose (diluted by physiological saline) was administered. Serum was separated from collected whole blood and glucose concentration was measured by Glucose-Test Wako (manufactured by Wako Pure Chemical Industries).

B1: activin A: Human Recombinant (R&D Systems, 338AC005); in Examples 3 and 7 expressed by inhibin βA recombinant adenovirus (protein, UniProt P08476 311-426, looked up)
Inhibin beta A chain: GLECDGKVNICCKKQFFVSFKDIGWNDWIIAPSGYHANYCEGECPSHIAGTSGSSLSFHSTVINHYRMRGHSPFANLKSCCVPTKLRPMSMLYYDDGQNIIKKDIQNMIVEECGCS
modifications: Inhibin beta A chain homodimer
With B1 the “expression level of arginase-1” value (RAW264.7 cells [1]) was “increased”, the “expression level of arginase-1 in visceral fat” value [2] was “slightly increased” and the “expression level of IL-6 (M1 macrophage marker)” value (RAW264.7 cells [3]) was “not changed”. For the same molecule, the “expression level of MCP-1 (M1 macrophage marker)” value (RAW264.7 cells [3]) was “not changed”, the “expression of arginase-1 (M2 macrophage marker)” value (RAW264.7 cells [3]) was “remarkably increased” and the “expression of arginase-1 in visceral fat” value (db/db mice) was “no difference from the control”. The “expression level of arginase-1” value (RAW264.7 cells [4]) was “remarkably increased”, the “expression level of MCP-1, effect of activin addition” value (RAW264.7 cells [4]) was “not changed” and the “expression of IL-6, effect of activin addition” value (RAW264.7 cells [4]) was “slightly reduced”. The “expression of IL-10” value (RAW264.7 cells [5]) was “remarkably increased”, the “expression of Mrc2” value (RAW264.7 cells [5]) was “remarkably increased” and the “expression of arginase-1” value (RAW264.7 cells [5]) was “remarkably increased”. The “glucose metabolism in glucose tolerance test (GTT)” value [6] was “improved glucose metabolism”.

B2: activin B: Recombinant (R&D Systems, 659AB005); in Examples 3 and 7 expressed by inhibin βB recombinant adenovirus (protein, UniProt P09529 293-407, looked up)
Inhibin beta B chain: GLECDGRTNLCCRQQFFIDFRLIGWNDWIIAPTGYYGNYCEGSCPAYLAGVPGSASSFHTAVVNQYRMRGLNPGTVNSCCIPTKLSTMSMLYFDDEYNIVKRDVPNMIVEECGCA
modifications: Inhibin beta B chain homodimer
In the case of B2, the “expression level of arginase-1 in visceral fat” value [2] is reported as “similarly increased”, the “expression level of IL-6 (M1 macrophage marker)” value (RAW264.7 cells [3]) is reported as “not changed” and the “expression level of MCP-1 (M1 macrophage marker)” value (RAW264.7 cells [3]) is reported as “not changed”. The “expression of arginase-1 (M2 macrophage marker)” value (RAW264.7 cells [3]) was “remarkably increased”, the “expression of arginase-1 in visceral fat” value (db/db mice) was “remarkably increased” and the “expression level of arginase-1” value (RAW264.7 cells [4]) was “remarkably increased”. For the same molecule, the “expression level of MCP-1, effect of activin addition” value (RAW264.7 cells [4]) was “not changed”, the “expression of IL-6, effect of activin addition” value (RAW264.7 cells [4]) was “slightly reduced” and the “glucose metabolism in glucose tolerance test (GTT)” value [6] was “improved glucose metabolism”.
